Reference: IntAct's records for PubMed 16286920

B1: Galectin-9 (Mus musculus), O08573-2 (parent)
chain: MALFSAQSPYINPIIPFTGPIQGGLQEGLQVTLQGTTKSFAQRFVVNFQNSFNGNDIAFHFNPRFEEGGYVVCNTKQNGQWGPEERKMQMPFQKGMPFELCFLVQRSEFKVMVNKKFFVQYQHRVPYHLVDTIAVSGCLKLSFITFQTQNFRPAHQAPMAQTTIHMVHSTPGQMFSTPGIPPVVYPTPAYTIPFYTPIPNGLYPSKSIMISGNVLPDATRFHINLRCGGDIAFHLNPRFNENAVVRNTQINNSWGQEERSLLGRMPFSRGQSFSVWIICEGHCFKVAVNGQHMCEYYHRLKNLQDINTLEVAGDIQLTHVQT

Variants of: B1
Settings: with havr2_mouse Havcr2, Q8VIM0
Chain of havr2_mouse Havcr2, Q8VIM0 (Q8VIM0 whole entry): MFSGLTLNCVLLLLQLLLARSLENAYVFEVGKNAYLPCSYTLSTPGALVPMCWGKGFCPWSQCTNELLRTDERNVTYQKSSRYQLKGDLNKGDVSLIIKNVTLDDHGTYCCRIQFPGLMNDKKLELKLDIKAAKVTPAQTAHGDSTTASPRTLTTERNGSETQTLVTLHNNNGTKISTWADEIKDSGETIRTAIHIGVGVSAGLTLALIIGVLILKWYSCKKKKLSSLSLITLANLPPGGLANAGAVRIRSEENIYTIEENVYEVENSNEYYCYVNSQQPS

Variant	effect of a mutation on the interaction
R64A	decreasing interaction strength
R64A;R238A	disrupting interaction strength
R238A	decreasing interaction strength
